In this data set the target is M. tuberculosis RNAP core;SigB;RbpA (Mycobacterium …, UniProt P9WGZ1;P9WGY9;P9WGY7;P9WGY5;P9WGI5;P9WHJ5 1-347;1-1178;1-1316;1-110;1-323;1-111, ||). Nature of the data set: EMSA. (Mobility shift assays separate free from complexed probe on a gel.)

B1: galP1AA (dsDNA)
DNA 1: GTTTATTCCATGTCACACTTTTCGCATCTTTTCGTTGCTATAATTATTTCATACCAAAAGCCTAATGGAGCG
DNA 2: CGCTCCATTAGGCTTTTGGTATGAAATAATTATAGCAACGAAAAGATGCGAAAAGTGTGACATGGAATAAAC
B1: the binding result was “binds”.

The values above are taken from article PMC4176334.
